Test results: patent US20250340637A1 (ABPRO, published 2025)
Where two headings read alike, the source gives them in different places.

B1: 47D10-V7-v5.5 (antibody, V domains shown)
VH: EVQLVESGGGLVQPGGSLKLSCAASGFTFNTYAMNWVRQAPGKGLEWVARIRSKYNNYATYYADSVKDRFTISRDDSKNTAYLQMNSLKTEDTAVYYCVRHGNFGNSYVSWFMYWGQGTLVTVSS
VL: QTVVTQEPSLTVSPGGTVTLTCRSSTGAVTTSNYANWVQQKPGQAFRGLIGGTNKRAPGVPARFSGSLLGGKAALTLSGVQPEDEAIYFCALWYSNLWVFGGGTKLTVL
B2: ABP100s.10.0.5 (antibody, V domains shown)
VH: EVQLVESGGGLVQPGGSLKLSCAASGFTFNTYAMNWVRQAPGKCLEWVARIRSKYNNYATYYADSVKDRFTISRDDSKNTAYLQMNSLKTEDTAVYYCVRHGNFGNSYVSWFMYWGQGTLVTVSS
VL: QTVVTQEPSLTVSPGGTVTLTCRSSTGAVTTSNYANWVQQKPGQAFRGLIGGTNKRAPGVPARFSGSLLGGKAALTLSGVQPEDEAIYFCALWYSNLWVFGCGTKLTVL
B3: 47D10-V7-v5.6 (antibody, V domains shown)
VH: EVQLVESGGGLVQPGGSLKLSCAASGFTFNTYAMNWVRQAPGKGLEWVARIRSKYNNYATYYADSVKDRFTISRDDSKNTAYLQMNSLKTEDTAVYYCVRHGNFGNSYVSWFAYWGQGTLVTVSS
VL: QTVVTQEPSLTVSPGGTVTLTCRSSTGAVTTSNYANWVQQKPGQAFRGLIGGTNKRAPGVPARFSGSLLGGKAALTLSGVQPEDEAIYFCMLWYSNLWVFGGGTKLTVL
B4: ABP100s.5.3 (antibody, V domains shown)
VH: EVQLVESGGGLVQPGGSLKLSCAASGFTFNTYAMNWVRQAPGKGLEWVARIRSKYNNYATYYADSVKDRFTISRDDSKNTAYLQMNSLKTEDTAVYYCVRHGNFGNSYVSWFAYWGQGTLVTVSS
VL: QTVVTQEPSLTVSPGGTVTLTCRSSTGAVTTSNYANWVQQKPGQAFRGLIGGTNKRAPGVPARFSGSLLGGKAALTLSGVQPEDEAIYFCALYYSNLWVFGGGTKLEIK
B5: ABP100s.10.0.6 (antibody, V domains shown)
VH: EVQLVESGGGLVQPGGSLKLSCAASGFTFNTYAMNWVRQAPGKCLEWVARIRSKYNNYATYYADSVKDRFTISRDDSKNTAYLQMNSLKTEDTAVYYCVRHGNFGNSYVSWFAYWGQGTLVTVSS
VL: QTVVTQEPSLTVSPGGTVTLTCRSSTGAVTTSNYANWVQQKPGQAFRGLIGGTNKRAPGVPARFSGSLLGGKAALTLSGVQPEDEAIYFCMLWYSNLWVFGCGTKLTVL

What was measured:
Test in all cases: SPR, Biacore 8K; CD3 Affinity column: Low
HuCD3E [1] = target: T1, HuCD3E (Homo sapiens, UniProt P07766 23-126, limits assumed)
T1 construct: Recombinant analyte in SPR and antigen in ELISA; also called human CD3; human CD3 epsilon

HuCD3E [2] = target: T1, HuCD3E; remark: listed apart in the source
HuCD3E [3] = target: T1, HuCD3E; remark: listed apart in the source

T1 sequence (P07766 23-126 limits assumed): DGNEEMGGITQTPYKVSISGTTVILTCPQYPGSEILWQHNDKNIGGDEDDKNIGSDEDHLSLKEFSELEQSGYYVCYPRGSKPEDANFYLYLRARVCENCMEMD

Row | Binder | Kd (HuCD3E [1]) [nM] | Kd (HuCD3E [2]) [nM] | other results
1 | B1 | > 100 | – | –
2 | B2 | – | > 100 | –
3 | B3 | > 100 | – | –
4 | B4 | – | – | Kd (HuCD3E [3]): > 100 nM
5 | B5 | – | > 100 | –
